Measured values published in US20200407441A1 (I MAB BIOPHARMA US, published 2020).
Positions count from the first letter of the chain named. Each block holds one molecule with its values, some of them ahead of it.

Legend:
[1] = biological target: CD47 on human red blood cells (human) (UniProt Q08722); assay: flow cytometry on human RBCs, Donor 2
[2] = biological target: CD47 on human red blood cells (human) (UniProt Q08722); assay: flow cytometry on human RBCs, Donor 1
[3] = biological target: CD47 on human platelets (human) (UniProt Q08722); assay: flow cytometry on human whole blood, gated on CD61 positive platelets, antibody at 10 ug/mL
[4] = biological target: T1, human CD47 on Raji cells (human, UniProt Q08722 19-323); assay: flow cytometry on Raji cells
T1 construct: whole, on cells; also called CD47+ Raji cells; CD47-bearing Raji cells
Method: (§1) Then, the cells were washed with PBS three times, followed by incubation with APC-labeled anti-human Fc specific antibody (Invitrogen) at 4° C. for 30 minutes. Binding was measured using a FACSCanto (Becton-Dickinson).

[5] = biological target: T2, recombinant human CD47/mouse Fc fusion protein (Acrobiosystems) (human, UniProt Q08722 19-139); assay: ELISA, CD47/mouse Fc coated at 1 ug/ml, anti-human Fc HRP
T2 construct: extracellular domain; Bought reagent; also called dimeric CD47-ECD; not shown: Mouse Fc

[6] = biological target: T3, biotinylated human CD47-ECD protein (Acrobiosystems) (human, UniProt Q08722 19-139, biotinylated (site not stated)); assay: ELISA, biotinylated CD47 coated at 1 ug/mL, anti-human Fc HRP
T3 construct: extracellular domain; Bought reagent; also called biotinylated CD47 protein; monomeric CD47-ECD

[7] = biological target: T2, recombinant human CD47/mouse Fc fusion …; assay: ELISA on recombinant CD47-ECD (FIG. 2b, dimeric CD47-ECD)
Method: CD47/mouse Fc fusion protein (Acrobiosystems) was coated at 1 ug/ml in PBS onto microtiter plates for 2 hours at RT. After coating of antigen the wells were blocked with PBS/0.05% Tween (PBST) with 1% BSA for 1 hour at RT. After washing of the wells with PBST, different concentrations of anti-CD47 antibodies were added to the well and incubated for 1 at RT. For detection of the binding antibodies, the HRP conjugated secondary antibodies against human Fc (Jackson Immuno Research) were added followed by the addition of fluorogenic substrates (Roche). Between all incubation steps, the wells of the plate were washed with PBST three times. Fluorescence was measured in a TECAN Spectrafluor plate reader.

[8] = biological target: T4, recombinant human CD47-Fc fusion protein (Acrobiosystems) (human, UniProt Q08722 19-139); assay: blocking ELISA, CD47-Fc coated, blocked ligand SIRPa-His at 1 ug/mL, anti-His HRP
T4 construct: extracellular domain; also called recombinant CD47-Fc fusion protein; not shown: Fc

[9] = biological target: T5, CD47 (form not stated) (UniProt Q08722 19-139, limits assumed); assay: Biacore
[10] = biological target: T4, recombinant human CD47-Fc fusion …; assay: competition ELISA: blocks SIRPα-His binding to coated CD47-Fc
Method: Recombinant CD47-Fc fusion protein (Acrobiosystems) was coated at 1 ug/ml in PBS onto microtiter plates for 16 hours at 4° C. […] Plates were subsequently washed three times and incubated with an HRP-conjugated anti-His secondary antibody for 1 h at RT.

[11] = biological target: T6, Tag1-CD47 (Cisbio HTRF kit) (UniProt Q08722 19-139); assay: HTRF competition: blocks Tag1-CD47 / Tag2-SIRPα interaction (Cisbio)
T6 construct: Kit reagent
Method: (§2) The mixture was incubated at 25° C. for 15 minutes, and further incubated at 25° C. for 1 hour after conjugates pre-mixture was added. Then the plate sealer was removed and fluorescence data was read on a PerkinElmer Envision plate reader.

[12] = biological target: T5, CD47 (form not stated); assay: BiaCore (SPR); format not stated
[13] = biological target: T1, human CD47 on Raji cells; assay: flow cytometry on Raji cells, APC anti-human Fc
Method: as §1

[14] = biological target: T6, Tag1-CD47 (Cisbio HTRF kit); assay: HTRF CD47-SIRPa binding assay (ratio 665 nm / 615 nm), blocked ligand Tag2-SIRPa
Method: as §2

[15] = biological target: T1, human CD47 on Raji cells; assay: flow cytometry on Raji cells, MFI
[16] = biological target: T5, CD47 (form not stated); assay: Biacore (SPR); format not stated
[17] = biological target: T7, human CD47-ECD (human, UniProt Q08722 19-139, limits assumed, N-terminal pyroglutamate (seen in the crystal structure)); assay: ELISA on recombinant CD47-ECD; recombinant CD47-ECD
T7 construct: extracellular domain; also called recombinant CD47-ECD; CD47 ECD protein

[18] = biological target: T1, human CD47 on Raji cells; assay: flow cytometry on Raji cells; CD47-bearing Raji cells
[19] = biological target: T5, CD47 (form not stated); assay: CD47-SIRPα blocking assay; format not stated; blocking of CD47 binding to SIRPα

percent of cells in the binding gate [1]: 0.018%
percent of cells in the binding gate [2]: 0.079%
Molecule: IgG (antibody)

percent of cells in the binding gate [1]: 0.076%
percent of CD61+ platelets in the binding gate [3]: 0.77%
EC50 [4]: 2.95 nM
EC50 (read off the curve) [5]: ~0.006 µg/mL
EC50 (read off the curve) [6]: ~0.009 µg/mL
EC50 [7]: 0.038 nM
IC50 (read off the curve) [8]: ~0.3 µg/mL
kon [9]: 375000 M⁻¹ s⁻¹
IC50 [10]: 0.78 nM
percent of cells in the binding gate [2]: 0.065%
IC50 [11]: 1.6 nM
Kd [12]: 2.8 nM
koff [12]: 0.00104 s⁻¹
EC50 (read off the curve) [13]: ~0.2 µg/mL
B1: CD47 antibody 1F8 (antibody, human IgG1, V domains shown)
VH: KVQLVESGGGLVKPGGSLRLSCAASGFTFSNAWMNWVRQAPGKGLEWVGRIKRKTDGETTDYAAPVKGRFSISRDDSKNTLYLQMNSLKTEDTAVYYCAGSNRAFDIWGQGTMVTVSA
VL: DIVMTQSPDSLAVSLGERATINCKSSQSVLYSSNNRNYLAWYQQKPGQPPKLLINQASTRASGVPDRFSGSGSGTEFTLIISSLHAEDVAIYYCQQYYTPPLAFGGGTKLEIK

EC50 [4]: 1.06 nM
EC50 [7]: 0.045 nM
IC50 [14]: 0.36 nM
Kd [9]: 0.46 nM
koff [9]: 0.000247 s⁻¹
kon [9]: 533000 M⁻¹ s⁻¹
IC50 [10]: 0.2 nM
EC50 [15]: 1.07 nM
Kd [16]: 7.81 nM
koff [16]: 0.00282 s⁻¹
kon [16]: 361000 M⁻¹ s⁻¹
B2: CD47 antibody 13H3 (antibody, V domains shown)
VH: B1 VH with F27L, S30E, N31R
VL: B1 VL with S32A, S33G, H85Q

EC50 [17]: 0.27 nM
EC50 [18]: 0.83 nM
EC50 [19]: 0.3 nM
B3: CD47 antibody 34C5 (antibody, V domains shown)
VH: QVQLVQSGAEVKKPGSSVKVSCKASGYTFSSYYMHWVRQAPGQGLEWMGEINPNNARINFNEKFKTRVTLTVDKSTSTAYMELSSLRSEDTAVYYCTRGYYRYGAWFGYWGQGTLVTVSS
VL: DIQMTQSPSSLSASVGDRVTITCRASQDISDYLNWYQQKPGKAPKLLIYYISRLHSGVPSRFSGSGSGTDYTLTISSLQPEDFATYYCQQGHTLPWTFGGGTKVEIK
